2 molecules from publication PMC2288612, “The Mre11 protein interacts with both Rad50 and the HerA bipolar helicase and is recruited to DNA following gamma irradiation in the archaeon Sulfolobus acidocaldarius” (BMC Molecular Biology, 2008) can be followed below.

This test has as its target T1, Rad50 recombinant protein (Sulfolobus acidocaldarius) (S. acidocaldarius, UniProt O33600 1-886).
T1 construct: Rad50, Sulfolobus acidocaldarius, purified recombinant protein; source: recombinant, purified (Ni-NTA, gel filtration through Sephadex 200)
T1 sequence (looked up): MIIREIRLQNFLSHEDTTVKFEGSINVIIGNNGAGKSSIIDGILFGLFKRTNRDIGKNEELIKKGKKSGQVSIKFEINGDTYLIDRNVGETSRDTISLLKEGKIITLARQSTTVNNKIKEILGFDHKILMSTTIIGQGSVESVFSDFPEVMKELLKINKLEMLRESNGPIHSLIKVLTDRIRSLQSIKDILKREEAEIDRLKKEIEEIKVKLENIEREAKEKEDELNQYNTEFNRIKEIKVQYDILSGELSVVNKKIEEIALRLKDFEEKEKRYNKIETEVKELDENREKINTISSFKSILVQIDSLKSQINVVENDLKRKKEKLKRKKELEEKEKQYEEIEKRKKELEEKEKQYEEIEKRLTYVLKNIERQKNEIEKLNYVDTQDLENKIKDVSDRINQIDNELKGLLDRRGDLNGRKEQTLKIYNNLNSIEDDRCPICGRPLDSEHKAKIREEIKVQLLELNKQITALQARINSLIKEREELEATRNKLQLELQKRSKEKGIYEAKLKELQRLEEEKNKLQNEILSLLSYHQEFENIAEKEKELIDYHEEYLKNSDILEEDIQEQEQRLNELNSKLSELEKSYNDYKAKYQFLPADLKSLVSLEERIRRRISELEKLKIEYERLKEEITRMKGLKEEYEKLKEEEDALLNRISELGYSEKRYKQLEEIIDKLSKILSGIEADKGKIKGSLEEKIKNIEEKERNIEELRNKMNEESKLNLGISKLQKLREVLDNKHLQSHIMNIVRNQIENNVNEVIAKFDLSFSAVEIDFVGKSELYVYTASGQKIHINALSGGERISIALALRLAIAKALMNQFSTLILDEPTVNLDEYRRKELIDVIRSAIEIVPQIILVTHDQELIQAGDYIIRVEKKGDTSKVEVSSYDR
Put plainly: co-IP; anti-Rad50 purified IgGs and protein A-sepharose on a mixture of purified recombinant proteins (60 nM Rad50, Mre11 and NurA, 300 nM HerA) in IP buffer (20 mM Hepes pH 7.5, 100 mM NaCl, 15 mM MgCl2, 5 mM beta-mercaptoethanol); 4°C; immunoblot. The following applies: both partners purified.

B1: Mre11 recombinant protein (Sulfolobus acidocaldarius) (natural protein, S. acidocaldarius, UniProt Q8NKQ0 1-382, looked up)
chain: MQLLHISDTHLGKRQYNLESREKDVYDTFTQLIDIAINEHVKAVIHTGDLFDVNNPPNRAKLHAIKELKRLKDHNIPFICIAGDHDSPKRKEEIYPQRILEEFNLIKILQKIDNRVKLENVEVYGISHISNVSVNDLKEQLSKVKPETRKSILMLHQGIRTYLPYQGAWQIELSDLPKGFSLYAVGHLHSRRKDYLDGGALIEIAGSPDIMREEEIEDYQKSKKGATLIDMSGDLPSINYINVNIRDQLVLDINVDKIEQSIESVIQKLKENVKNDKKPILHIELEGTVPIRKDVLMTKLQALRDYVEHYRIYKNNIVSIKEENLKTKLKTTYSSLNDIIADYLKGIGYTDEETKIIIDIINEEDEKKVEELLKKFAGVEDK
notes: Mre11, Sulfolobus acidocaldarius, purified recombinant protein; source: recombinant, purified (Ni-NTA, gel filtration through Sephadex 200)
B1: the binding result is on record as “binds”.

B2: HerA recombinant protein (Sulfolobus acidocaldarius) (natural protein, S. acidocaldarius, UniProt F2Z5Z6 1-495, looked up)
chain: MTIGYIIGSATINEATAILEQKIRAGYYVILEYDGDKILGLITNVYTGSPLLDDNLNDVKFVQRIKQLEANKIPFFIKARIKLLCKLDGKFTQPDLPPVAGTPVRLASDEELSTVFSAGDVRIGKLIGSNVEVKIRLNPLSRHLAILAATGSGKSNTVAILSQRLVEIGGSILIFDYHGEYYDSTLPNLNIIEPKLNPLYLSVNEFATLLEIRENANIQYRIIRRTFNQLKEEINNEIKEGKTSLAELNSNFFERLKVKIEEEGRNEKRKESKDEVLNKVEDFAERYSDIIDITFGDVINKIKLGKINVVNLSSLDEDAIDAIVAHYLRRILTSRKENKIKKDSGLKFPILTVVEEAHVLLSKDTNTLTKKWAGRIAREGRKFGVGLIIVSQRPKGLDENILSQMTNKIILKIVEPSDKKYVLETSDNLSEDLADGLSSLDTGEAIIIGNVVKLPTIIKIDKFEGKLSGSDPNLTEEWKRAKEEEIVHSDVSDWG
notes: HerA bipolar DNA helicase, Sulfolobus acidocaldarius, purified recombinant protein; also called HerA bipolar helicase
For B2, the binding result was “binds”.
